In the series the test system is RepN (N-terminal 191 residues of TYLCV Rep) (Tomato yellow leaf curl virus). The series can be described thus: EMSA. Particulars: 10 mM Tris-HCl, 100 mM NaCl, 5 mM MgCl2, 0.1 mM ZnCl2, pH 7.5, on ice. A general note: A gel shift assay detects complexes by their altered migration in electrophoresis.

For “TYLCV replication origin DNA containing Rep-binding direct repeats”, the dissociation constant (Kd) (as a rule, the equilibrium constant for the complex coming apart) was 0.03 µM.

For the origin of these results see patent US20150173367.
